Measured values from IntAct's records for PubMed 21905166.

B1: Rab proteins geranylgeranyltransferase component A 1 (Homo sapiens), P24386 (parent)
chain: MADTLPSEFDVIVIGTGLPESIIAAACSRSGRRVLHVDSRSYYGGNWASFSFSGLLSWLKEYQENSDIVSDSPVWQDQILENEEAIALSRKDKTIQHVEVFCYASQDLHEDVEEAGALQKNHALVTSANSTEAADSAFLPTEDESLSTMSCEMLTEQTPSSDPENALEVNGAEVTGEKENHCDDKTCVPSTSAEDMSENVPIAEDTTEQPKKNRITYSQIIKEGRRFNIDLVSKLLYSRGLLIDLLIKSNVSRYAEFKNITRILAFREGRVEQVPCSRADVFNSKQLTMVEKRMLMKFLTFCMEYEKYPDEYKGYEEITFYEYLKTQKLTPNLQYIVMHSIAMTSETASSTIDGLKATKNFLHCLGRYGNTPFLFPLYGQGELPQCFCRMCAVFGGIYCLRHSVQCLVVDKESRKCKAIIDQFGQRIISEHFLVEDSYFPENMCSRVQYRQISRAVLITDRSVLKTDSDQQISILTVPAEEPGTFAVRVIELCSSTMTCMKGTYLVHLTCTSSKTAREDLESVVQKLFVPYTEMEIENEQVEKPRILWALYFNMRDSSDISRSCYNDLPSNVYVCSGPDCGLGNDNAVKQAETLFQEICPNEDFCPPPPNPEDIILDGDSLQPEASESSAIPEANSETFKESTNLGNLEESSE
partner: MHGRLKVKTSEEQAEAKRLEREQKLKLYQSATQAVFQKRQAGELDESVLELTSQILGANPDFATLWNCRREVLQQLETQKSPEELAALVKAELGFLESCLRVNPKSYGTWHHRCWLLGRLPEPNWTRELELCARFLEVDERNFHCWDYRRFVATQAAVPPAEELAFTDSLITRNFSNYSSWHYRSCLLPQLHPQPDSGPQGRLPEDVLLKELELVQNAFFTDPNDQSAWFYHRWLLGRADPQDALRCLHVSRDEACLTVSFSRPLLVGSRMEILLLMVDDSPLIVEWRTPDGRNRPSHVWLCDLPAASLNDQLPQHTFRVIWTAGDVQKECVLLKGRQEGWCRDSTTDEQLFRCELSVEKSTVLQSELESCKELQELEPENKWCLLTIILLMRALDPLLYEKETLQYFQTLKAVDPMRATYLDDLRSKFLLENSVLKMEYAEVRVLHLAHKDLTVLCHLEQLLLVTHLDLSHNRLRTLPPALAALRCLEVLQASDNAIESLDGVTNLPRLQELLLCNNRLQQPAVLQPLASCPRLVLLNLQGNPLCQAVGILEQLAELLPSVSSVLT

Variants of: B1
Conditions: with pgta_human RABGGTA

Variant	effect of a mutation on the interaction
H507R	disrupting interaction
